Laboratory results published in the Human Domainome abundance scans (Beltran et al. 2025).
± gives the uncertainty stated by the source.

B1: V(D)J recombination-activating protein 2, residues 415 to 491; numbered along this chain, P55895 (parent)
chain: YWITCCPTCDVDINTWVPFYSTELNKPAMIYCSHGDGHWVHAQCMDLAERTLIHLSAGSNKYYCNEHVEIARALHTP

Variants of: B1
Assay: abundance fitness (aPCA) (normalised: wild type 0, dead -1); higher = more abundant; growth selection in yeast, the domain comes from the species named
Conditions: Homo sapiens

N60H and N60D are within error of each other in abundance fitness: -0.084 ± 0.054 for the first, 0.01 ± 0.13 for the second.

Going from S59H to A42L, the abundance fitness falls from -0.043 ± 0.21 to -0.684 ± 0.087.

A42Y and P18H are within error of each other in abundance fitness: -0.626 ± 0.4 for the first, -0.175 ± 0.3 for the second.

N65A and N65P are within error of each other in abundance fitness: 0.001 ± 0.063 for the first, 0.016 ± 0.11 for the second.

E69Y and E69W are within error of each other in abundance fitness: -0.328 ± 0.41 for the first, 0.071 ± 0.23 for the second.

E69S and T22S are within error of each other in abundance fitness: 0.075 ± 0.11 for the first, 0.096 ± 0.18 for the second.

T22L and T22A are within error of each other in abundance fitness: -0.179 ± 0.11 for the first, -0.157 ± 0.41 for the second.

T22V and T22M are within error of each other in abundance fitness: -0.062 ± 0.13 for the first, 0.389 ± 0.36 for the second.

D12M and D12V are within error of each other in abundance fitness: 0.009 ± 0.14 for the first, -0.304 ± 0.3 for the second.

A71I and L55W are within error of each other in abundance fitness: -0.008 ± 0.1 for the first, -0.086 ± 0.053 for the second.

First: L55P
Second: R50C
The abundance fitness of the first is lower: -0.218 ± 0.078 for the first, 0.106 ± 0.11 for the second.

First: R50Y
Second: I30G
The abundance fitness of the first is higher: -0.122 ± 0.099 for the first, -0.644 ± 0.18 for the second.

Compared with I30K, Y20A is lower in abundance fitness: 0.147 ± 0.23 for the first, -0.539 ± 0.35 for the second.

Y20S and K61N are within error of each other in abundance fitness: -0.513 ± 0.14 for the first, -0.115 ± 0.29 for the second.

Compared with K61S, K61L is higher in abundance fitness: -0.116 ± 0.13 for the first, 0.158 ± 0.1 for the second.

K61E and K61W are within error of each other in abundance fitness: -0.002 ± 0.16 for the first, -0.159 ± 0.2 for the second.

I53G and I53C are within error of each other in abundance fitness: 0.007 ± 0.064 for the first, -0.056 ± 0.12 for the second.

Compared with I53M, V11S is lower in abundance fitness: 0.041 ± 0.1 for the first, -0.437 ± 0.14 for the second.

E66V and E66A are within error of each other in abundance fitness: -0.105 ± 0.06 for the first, -0.025 ± 0.064 for the second.

V17M and W39F are the same in abundance fitness: -0.105 ± 0.25 for the first, -0.105 ± 0.074 for the second.

W39K and W39Q are within error of each other in abundance fitness: -0.23 ± 0.07 for the first, -0.176 ± 0.053 for the second.

W39L and T51V are within error of each other in abundance fitness: -0.097 ± 0.033 for the first, -0.043 ± 0.055 for the second.

T51A and L24E are within error of each other in abundance fitness: -0.025 ± 0.045 for the first, 0.296 ± 0.38 for the second.

L24Y and L24S are within error of each other in abundance fitness: -0.337 ± 0.32 for the first, -0.153 ± 0.099 for the second.

First: L24W
Second: Y62W
The abundance fitness of the first is lower: -0.305 ± 0.14 for the first, 0.067 ± 0.087 for the second.

First: Y62F
Second: Y62I
The abundance fitness of the first is higher: -0.003 ± 0.12 for the first, -0.281 ± 0.097 for the second.

G37E and G37S are within error of each other in abundance fitness: -0.778 ± 0.26 for the first, -0.839 ± 0.21 for the second.

C44G and C44Y are within error of each other in abundance fitness: -1.01 ± 0.11 for the first, -0.961 ± 0.22 for the second.

Going from C44F to E49L, the abundance fitness rises from -0.952 ± 0.31 to -0.124 ± 0.044.

Going from E49P to E49R, the abundance fitness falls from 0.023 ± 0.075 to -0.368 ± 0.055.

First: E49D
Second: C32Y
The abundance fitness of the first is higher: -0.038 ± 0.083 for the first, -0.888 ± 0.34 for the second.

I13T and I13V are within error of each other in abundance fitness: -0.329 ± 0.22 for the first, -0.35 ± 0.14 for the second.

D36K and D36T are within error of each other in abundance fitness: -0.441 ± 0.29 for the first, -0.62 ± 0.45 for the second.

T8P and G35R are within error of each other in abundance fitness: -0.159 ± 0.3 for the first, -0.374 ± 0.25 for the second.

G35N and G35E are within error of each other in abundance fitness: 0.137 ± 0.36 for the first, 0.068 ± 0.19 for the second.

G35Q and V40I are within error of each other in abundance fitness: -0.17 ± 0.12 for the first, -0.081 ± 0.35 for the second.

Going from V40D to A57N, the abundance fitness rises from -0.555 ± 0.43 to 0.057 ± 0.11.

Compared with A57H, C64F is lower in abundance fitness: 0.091 ± 0.17 for the first, -0.851 ± 0.37 for the second.

C64M and C64G are within error of each other in abundance fitness: -1.06 ± 0.46 for the first, -0.935 ± 0.1 for the second.

C64S and C64A are within error of each other in abundance fitness: -0.803 ± 0.12 for the first, -1.01 ± 0.16 for the second.

Q43G and S33H are within error of each other in abundance fitness: -0.203 ± 0.14 for the first, -0.116 ± 0.13 for the second.

Going from S33G to S33V, the abundance fitness falls from -0.065 ± 0.046 to -0.157 ± 0.043.

S33Q and S33I are within error of each other in abundance fitness: -0.091 ± 0.063 for the first, -0.031 ± 0.052 for the second.

First: L47T
Second: L52R
The abundance fitness of the first is higher: -0.101 ± 0.056 for the first, -0.358 ± 0.073 for the second.

First: L52F
Second: L52Q
The abundance fitness of the first is lower: -0.211 ± 0.11 for the first, -0.006 ± 0.084 for the second.

P77R and H75N are within error of each other in abundance fitness: 0.152 ± 0.31 for the first, 0.051 ± 0.26 for the second.

Compared with H75T, H75W is lower in abundance fitness: 0.089 ± 0.068 for the first, -0.069 ± 0.064 for the second.

Y1E and Y1L are within error of each other in abundance fitness: -0.063 ± 0.2 for the first, -0.098 ± 0.087 for the second.

Going from Y1W to Y1V, the abundance fitness rises from -0.19 ± 0.037 to -0.008 ± 0.08.

First: Y1G
Second: W2Q
The abundance fitness of the first is higher: -0.102 ± 0.075 for the first, -0.382 ± 0.14 for the second.

W2P and W2K are within error of each other in abundance fitness: -0.299 ± 0.14 for the first, -0.162 ± 0.13 for the second.

Compared with W2V, W2Y is higher in abundance fitness: -0.853 ± 0.11 for the first, 0.055 ± 0.1 for the second.

T76L and M45C are within error of each other in abundance fitness: -0.029 ± 0.078 for the first, -0.181 ± 0.099 for the second.

First: M45H
Second: M45P
The abundance fitness of the first is higher: 0.058 ± 0.13 for the first, -1.26 ± 0.38 for the second.

D46R and D46T are within error of each other in abundance fitness: 0.041 ± 0.031 for the first, 0.088 ± 0.061 for the second.

I70L and I70N are within error of each other in abundance fitness: 0.03 ± 0.073 for the first, -0.169 ± 0.18 for the second.

Going from I70F to G58N, the abundance fitness falls from -0.002 ± 0.091 to -0.426 ± 0.19.

G58D and G58S are within error of each other in abundance fitness: 0.016 ± 0.096 for the first, -0.038 ± 0.071 for the second.

Compared with G58H, W16G is lower in abundance fitness: 0.013 ± 0.16 for the first, -0.565 ± 0.15 for the second.

W16P and F19Y are within error of each other in abundance fitness: -0.471 ± 0.41 for the first, 0.08 ± 0.42 for the second.

F19M and V68Y are within error of each other in abundance fitness: -0.029 ± 0.16 for the first, -0.335 ± 0.19 for the second.

V68L and V68C are within error of each other in abundance fitness: -0.08 ± 0.091 for the first, -0.019 ± 0.14 for the second.

A28T and Y31T are within error of each other in abundance fitness: -0.218 ± 0.28 for the first, -0.197 ± 0.079 for the second.

Compared with Y31L, Y31I is lower in abundance fitness: 0.005 ± 0.056 for the first, -0.649 ± 0.26 for the second.

Compared with Y31G, L74G is higher in abundance fitness: -0.337 ± 0.069 for the first, 0.092 ± 0.16 for the second.

N25R and N25L are within error of each other in abundance fitness: -0.052 ± 0.14 for the first, 0.073 ± 0.14 for the second.

Compared with N25D, P27R is lower in abundance fitness: -0.297 ± 0.33 for the first, -0.973 ± 0.2 for the second.

P27A and P27D are within error of each other in abundance fitness: -0.776 ± 0.44 for the first, -1.01 ± 0.41 for the second.

R72V and R72W are within error of each other in abundance fitness: -0.016 ± 0.12 for the first, -0.168 ± 0.075 for the second.

R72G and R72D are within error of each other in abundance fitness: 0.022 ± 0.11 for the first, 0.032 ± 0.21 for the second.

S56E and S56K are within error of each other in abundance fitness: 0.058 ± 0.065 for the first, 0.029 ± 0.1 for the second.

A48S and A48I are within error of each other in abundance fitness: -0.066 ± 0.067 for the first, 0.041 ± 0.11 for the second.

A48T and T15I are within error of each other in abundance fitness: 0.026 ± 0.09 for the first, -0.104 ± 0.3 for the second.

T15F and H54Q are within error of each other in abundance fitness: 0.052 ± 0.36 for the first, -0.277 ± 0.15 for the second.

H54W and H54S are within error of each other in abundance fitness: -0.064 ± 0.087 for the first, -0.002 ± 0.091 for the second.

Going from H67C to H67K, the abundance fitness falls from -0.031 ± 0.074 to -0.388 ± 0.081.

E23K and T4W are within error of each other in abundance fitness: -0.54 ± 0.28 for the first, -0.297 ± 0.07 for the second.

T4C and T4P are within error of each other in abundance fitness: -0.119 ± 0.1 for the first, -0.234 ± 0.068 for the second.

Going from C9R to A73Q, the abundance fitness rises from -0.668 ± 0.18 to 0.009 ± 0.14.

A73S and I3V are within error of each other in abundance fitness: -0.089 ± 0.14 for the first, -0.053 ± 0.042 for the second.

I3N and S21V are within error of each other in abundance fitness: -0.053 ± 0.15 for the first, -0.28 ± 0.12 for the second.

S21P and Y63H are within error of each other in abundance fitness: -0.004 ± 0.12 for the first, -0.012 ± 0.14 for the second.

H34E and H34Q are within error of each other in abundance fitness: -0.085 ± 0.082 for the first, 0.051 ± 0.085 for the second.

With H34C the abundance fitness was -0.309 ± 0.19.
